The text below walks through data of US20250361297A1, “ANTI- SIGLEC-15 BINDING MOLECULES AND METHODS OF USE” (ADAPTAM THERAPEUTICS, S.L., priority 2024, published 2025).

In the test the target is T1, recombinant human Siglec-15 protein (Homo sapiens, UniProt Q6ZMC9).
T1 construct: purchased Bonopusbio CW70-50 ug
T1 sequence (Q6ZMC9 20-263 limits assumed): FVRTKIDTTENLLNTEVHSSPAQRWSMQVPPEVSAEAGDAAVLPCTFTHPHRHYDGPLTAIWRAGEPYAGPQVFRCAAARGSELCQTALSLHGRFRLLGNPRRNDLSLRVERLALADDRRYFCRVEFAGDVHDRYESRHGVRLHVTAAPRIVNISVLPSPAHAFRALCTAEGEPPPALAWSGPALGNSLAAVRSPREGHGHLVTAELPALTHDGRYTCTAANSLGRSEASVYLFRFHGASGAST
Put plainly: BIACORE surface plasmon resonance binding affinity. Particulars: SPR; antibody as ligand, human Siglec-15 as analyte; 1:1 Langmuir model. An excerpt: Binding affinity determination of anti-Siglec-15 monoclonal antibodies using BIACORE surface plasmon resonance: The purified anti-Siglec-15 monoclonal antibodies (mAbs) were characterized for binding affinity and binding kinetics by Biacore T200 system (GE healthcare, Pittsburgh, PA, USA). Anti-Siglec-15 antibodies were covalently linked to a CM5 chip (carboxy methyl dextran coated chip, GE healthcare, Cat #BR-1005-30) via primary amines, using a standard amine coupling kit provided by Biacore (GE healthcare, Pittsburgh, PA, USA). Un-reacted moieties on the biosensor surface were blocked with ethanolamine. Then, serially diluted recombinant human Siglec-15-his protein (Bonopusbio, CW70-50 ug), 2-fold serial dilution in HBS-EP buffer starting at 80 nM, were respectively flown onto the chip at a flow rate of […]. The antigen-antibody association kinetics was followed for 2 minutes, and the dissociation kinetics was followed for 10 minutes. The association and dissociation curves were fit to a 1:1 Langmuir binding model using BIAcore evaluation software. The dissociation rate (kd) and association constant (ka) rate constants were obtained using Evaluation Software. The equilibrium dissociation constant (KD) was calculated from the ratio of kd over ka.
In general terms: Surface plasmon resonance follows binding to a sensor surface in real time, without labels.

B1: S15B1: parental mouse anti-Siglec-15 monoclonal antibody from hybridoma; VH SEQ ID NO: 18, VL SEQ ID NO: 19 (antibody, V domains shown)
VH: QVQLQQSGPELVKPGASVKISCKASGYAFSSSWMNWVKQRPGKGLEWIGRIYPGHGETNYNGKFKDKATVTADKSSSTTYMQLSSLTSEDSAVYFCARVDNSDPYYFDYWGQGTTLTVSS
VL: DIVLTQSPASLAVSLGQRATISCRASKSVSTSGYSYMHWYQQKPGQPPKLLIYLASNLESGVPARFSGSGSGTDFTLNIHPVEEEDAATYYCQHGRELPFTFGSGTKLEIK
modifications: Clone S15B1 VH; Clone S15B1 VL
B1: the “ka” value amounted to 4.46e+06 M⁻¹ s⁻¹ and the “kd” value came out at 0.000233 s⁻¹.
